Measurements taken from the nanobody polyreactivity screen of Harvey et al. (2022).

Assay: yeast display, Sf9 membrane polyspecificity reagent, FACS + sequencing; frameworks hold sequencing errors
Procedure, shortened: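 Galactose induction of a Saccharomyces cerevisiae BJ5465 synthetic nanobody display library ran 36–48 hours. The cells were then stained for 1 hour at 4 °C with 10% biotinylated, detergent-solubilized Sf9 membrane reagent, pulled down on streptavidin microbeads and FACS-sorted into low and high (top ~1%) gates on expression and reagent-binding fluorescence. Labels for polyreactivity follow the gate of origin.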

Sequence | polyreactivity (PSR sort gate)
QVQLVESGAGLVQAGGSLRLSCAASGRTFDKYAMGWYRQAPGKDRELVAAISGSGGRTYYADSVKGSFTISRDIAKNTVYLQMNSLKPEDTAFYYCAGDTGSYTYYYWGKGTQVTVSS | high polyreactivity
QVQLGESGGGLVQAGGSLRLSCAASGRTFYTNARGWYRQAAGKARELAADISRGGTTYYADSVKGRFTISRDNAKNTVYLQMNSLKPQDTAVYYSAAEGHELTEGDSWGQGTQVTVSS | low polyreactivity
QVQLVESGGGLVQAGGSLRLSCAASGRIFKSYAMGWYRQAPGKERELVAAIRSGGSTYYADSVKGRFTISRDNAKYTVYLQMNSLKPEDTAVYYCNRVTRTWKVTYHYWGQGTQVTVSS | high polyreactivity
QVQLVESGGGLVQAGGSLRLSCAASGSTFFRNAMGWYRQAPGKERELVAAISKSGTSTYYADSVKGRFTISRDNAKNTVYLQMNSLKPEDTAVYYCAKYGFSYPQSYAYYYWGQGTQVTVSS | high polyreactivity
QVQLVESGGGLVQAGGSLRLSCAASGSIFDDYAMGWYRQAPGKESELVAAITSGASTNYADSVKGRFTISRDNAKNTFSLQMNSLKPEDTAVYYCAADHDYFVNTDKFDDYWGQGTQVTVSS | low polyreactivity
QVQLVESGGGLDQAGGSLRLSCAASGRIFYQNAMGWYRQAPGKERELVAAITSSGVSTYYADSVKGRFTISRDYAKNTVYLQMNSLKPEDTAVYYCAAYRVGYGGYSYYYWGQGTQVTVSS | high polyreactivity
QVQLVESGGGLVQAGGSLRLSCDDSGTFFMGWNIPAPRKERELVAGISISDGSTYYADSVKGRFTISRDNAKNSVYLQMNSLKPEDTAVYYCAADSHYLYDYWGQGTQVTVSS | low polyreactivity
QVQLVESGGGLVQAGGSLRLSCAASGGTLEVYAMGWYRQAPGKEREFVAAISWSGGRTYYADSVKGRFTISRDNAKNTVYLQMNSLKPEDTAVYYCATRDRAGYYYWGQGTQVTVSS | high polyreactivity
QVQLVESGGGLVQAGGSLRLSCAASGFIFSGNAMGWYRQAPGKERELVAAISGRGGRTYYADSVKGRFTISRDNAKNTVYLQMNSLKPEDTAVYYCAADNPYLGRKFDYWGQGTQVTVSS | high polyreactivity
QVQLVESGGGLVEAGGSLRLSCAASGRIFVHNAMGWYRHAPGKERELVAVITYSGGRTYYADSVKGRFTISRDNAKNTVYLQMNSLKPEDTAVYYCAVRAYKVSRYYYWGQGTLVTVSS | low polyreactivity
QVQLVESGGGLVQAGGSLRLSCAASGFTFSSYARGWYRQAPGKEREFVAAIRFSGGSTYYADSVKGRFTISRDNAMNTVYLQMNSLKPVDTAVYYCAKRWGIWPRGYYWGQGTQVSVSS | low polyreactivity
QVQLVESGGGLVQAGGSLRLSCAASGFNFVRYAMGWYRQAPRKERELVAAITRRGGSTHYADSVKGRFTISRDNAKNTVYLQMNSLKPEDTAVYYCGAGRQYYYLDRFPRVQGDYWGQATQVTVSS | high polyreactivity
QVQLVESGGGLVQAGGSLRLSCAASGSIFLIYDMGWYRQAPGKEMELVAAISNSVGSTYADSVKGRFTISRDNAKNTVYLQINSLKPEDTAVYYCNADSGPIDGRGGYWGQGTQVTVSS | low polyreactivity
QVQLVESGGGLVQAGGSLRLSCAASGFIFYINAMGWYRQAPGKERELVAAINWRTGSTYYADSVKGRFTISRDNAKNTVYLLMNSLKPEDTAVYYCAAYGYWRRADTEFDYWGQGTQVTVSS | low polyreactivity
QVQLVESGGGLVQAGGSLRLSCAASGLTFIRYAMGWNRQAPGKERELVASISRGGSTYYADSVKGRFTISRDNAKNTVYLQMNSLKPEDTAVYYCAAQHVGHNYYNSGFYYWGQATQVTVSS | low polyreactivity
QVQLVESGGGLVQAGGSLRLSCAASGSTFVYNAMGWYRQAPGKERELVAAITVSDGSTYYADSVKGRFTISRDNAKNTVYLQMNSLKPEDTAVYYCNADFPRKTRYEYWGQGTQVTVSS | low polyreactivity

Sequence | polyreactivity (PSR sort gate)
QVQLVESGGGLVQAGGSLRLSCAASGRTFYNYAMGWYRQAPGKERELVAAISWSDGTTYYADSVKGRFTISRDNAKNTVYLQMNSLKPEDTAVYYCAAEFESSFALGFYYWGQGTQVTVSS | high polyreactivity
QVQLVESGGGLVQAGGSLRLSCAASGSIYVYNAMGWYRQAPGKERELVAAIDTVGSTNYADSVKGRFTISRDNAKNTVYLQMNSLKPEDTAVYYCAVVTPYWSFYDQVIPSNYWGEGTQVTVSS | low polyreactivity
QVHLVESGGGLVQAGGSLRLSCPASGSTIRNYAMGLYRQAPGKERELVAAITKRGGTTYYADSVKGRFTISRDNAKNTVYLQMNSLKPEDTAVYYCAIGYNSSPFDYWGQGTQVTVSS | high polyreactivity
QVQLEESGGGLVQAGGSLRLSCAASGITFSGNAMGWYRQAPGKERELVATISQSGGRTYYADSVKGRFTISRDNAKNTVYLQMNSLKPEDTAVYYCARRRLRYTDRGYYYWGQGTQVTVSS | high polyreactivity
QVQLVESGGGLVQAGGSLRLSCAASGRIIPNNAMGWYRQAPGKERELVAAITRGGTTYADSVKGRFTISRDNAKNTVYLQMNSLKPEDTAVYYCDTAAVKYGYRYYYWGQGTQVTVSS | high polyreactivity
QVQLVESGGGLVQAGGSLPLSCAASGSTFGSYAMGWYRQAPGKERELVAAISYSGGSTYYADSVKGRFTISRDNEKNTVFLQMNSLKPEDTAVYYCATVRKYRAMDYWGQGTQVSVSS | high polyreactivity
QVQLVESGGGLVQAAGRLRLSCAASGRIFQWNAMGWSRQAPGKERQLVATISSRGGSTYYADSVKGRFTISRDNEKITVYLQMNSLIPEDTAVYYCAARYYAKYRSYDYWGQGSQVTVSS | high polyreactivity
QVQLVESGGGLVQAGGSLRLSSAASGSIFGDYVMGWSRQAPGKERELVAAINRGGSTYYADSVKGRFTISRDNAKNTVYLHMNSLKPEDTAVYYCAAGYPSWYYGDPYDSWGQGTQVTVSS | low polyreactivity
QVQLVESAAGLVQAGGSLSLSCAASGFIFWRYAMGWYRQAPGKERELVAAISVSGTRTYYADSVKGRFTISRDNAKNTVYLQMNSLKPEDTAVYYCNAASRSFSSDRAFDYWGQGTQVTVSS | high polyreactivity
QVQLVESGGGLVQAGGSLRLSCAASGFTLEYYAMGWYRQAPGKERELVASISSGGRTNYADSVKGRFTISRDNAKNTVYLQMNSLKPEDTAVYYCAAEYRSWGRYRYRFNYWGEGTQVTVSS | high polyreactivity
QVQLVESGGGLVQEGGSLRLSCAASGFIVNRYAMGWYRQAPGKERELVAAITGSGSRTYYADSVKGRFTISRDNAKNTVYLHMNSLKPEATAVYYCNTDRRPTADFGYWGQGTQVTVAS | high polyreactivity
QVQLVESGGGLVQVGCSLRLICAASGRTFWWYAMGGYRQAPGKERELVAAISRGSTNYADSVKGRFTISRDNAKNTVYLQMNSLKPEDTAVYYCNAVSLYQSHDYDYWGQGSQVTVSS | low polyreactivity
QGQLEESGGGLVQAGGSLRLSCAASGSTFTYYAMGWYRQATGKERELVAAISWSGTRTYYADSVKGRFTISRDNAKNTDYLQTNSLKPEDTAVYYCAADWRRSGVYTMGYWGQGTQVTVSS | high polyreactivity
QVQLVESRGGIVQAGGSLRLSSAASGSTFAYNDLGWYRQAPGKERQLVADMRSGGNTNYADSVKGRFTISRDNAKNTVYLQMNSLKPEDTAVYYCATDGYRIDVYHPDYRYDYWGLGTQVTVSS | low polyreactivity
QVHLVESGGGLFQAGGSLRISCAASGRIFIGNAMGWYRPAPGKERELVAAISKRGGSTYYADSVKGRFTISRDYAKNTVYLQMNSLKPEDTAVYYCNKESLYREFDYWGQGTQVTVSS | low polyreactivity
QVQLVESVGGLVQAGGSLRLSLAASGFTFWYYAMGWYRQAPGKERELVAVINTSGGSTYADSVKGRFTISRDNAKNTVYLQMNSLKPEDTAVYYCAAEGISTYPYDYCGQGTQVTVSS | low polyreactivity
